First the molecules themselves.
B1: ING-1 heavy chain T30G (Fab, V domains shown)
VH: QIQLVQSGPELKKPGETVKISCKASGYTFGKYGMNWVKQAPGKGLKWMGWINTYTEEPTYGDDFKGRFAFSLETSASTANLQINNLKSEDTATYFCARFGSAVDYWGQGTSVTVSS
VL: DIVMTQAAFSNPVTLGTSGSISCRSSKSLLHSNGITYLYWYLQKPGQSPQLLIYQMSNLASGVPDRFSSSGSGTDFTLRISRVEAEDVGVYYCAQNLELPRTFGGGTKLEMKR
B2: ING-1 heavy chain T53F (Fab, V domains shown)
VH: QIQLVQSGPELKKPGETVKISCKASGYTFTKYGMNWVKQAPGKGLKWMGWINFYTEEPTYGDDFKGRFAFSLETSASTANLQINNLKSEDTATYFCARFGSAVDYWGQGTSVTVSS
VL: DIVMTQAAFSNPVTLGTSGSISCRSSKSLLHSNGITYLYWYLQKPGQSPQLLIYQMSNLASGVPDRFSSSGSGTDFTLRISRVEAEDVGVYYCAQNLELPRTFGGGTKLEMKR
B3: ING-1 heavy chain T53N (Fab, V domains shown)
VH: QIQLVQSGPELKKPGETVKISCKASGYTFTKYGMNWVKQAPGKGLKWMGWINNYTEEPTYGDDFKGRFAFSLETSASTANLQINNLKSEDTATYFCARFGSAVDYWGQGTSVTVSS
VL: DIVMTQAAFSNPVTLGTSGSISCRSSKSLLHSNGITYLYWYLQKPGQSPQLLIYQMSNLASGVPDRFSSSGSGTDFTLRISRVEAEDVGVYYCAQNLELPRTFGGGTKLEMKR
B4: ING-1 heavy chain T59H (Fab, V domains shown)
VH: QIQLVQSGPELKKPGETVKISCKASGYTFTKYGMNWVKQAPGKGLKWMGWINTYTEEPHYGDDFKGRFAFSLETSASTANLQINNLKSEDTATYFCARFGSAVDYWGQGTSVTVSS
VL: DIVMTQAAFSNPVTLGTSGSISCRSSKSLLHSNGITYLYWYLQKPGQSPQLLIYQMSNLASGVPDRFSSSGSGTDFTLRISRVEAEDVGVYYCAQNLELPRTFGGGTKLEMKR
B5: ING-1 heavy chain T53W (Fab, V domains shown)
VH: QIQLVQSGPELKKPGETVKISCKASGYTFTKYGMNWVKQAPGKGLKWMGWINWYTEEPTYGDDFKGRFAFSLETSASTANLQINNLKSEDTATYFCARFGSAVDYWGQGTSVTVSS
VL: DIVMTQAAFSNPVTLGTSGSISCRSSKSLLHSNGITYLYWYLQKPGQSPQLLIYQMSNLASGVPDRFSSSGSGTDFTLRISRVEAEDVGVYYCAQNLELPRTFGGGTKLEMKR
B6: ING-1 heavy chain T53Y (Fab, V domains shown)
VH: QIQLVQSGPELKKPGETVKISCKASGYTFTKYGMNWVKQAPGKGLKWMGWINYYTEEPTYGDDFKGRFAFSLETSASTANLQINNLKSEDTATYFCARFGSAVDYWGQGTSVTVSS
VL: DIVMTQAAFSNPVTLGTSGSISCRSSKSLLHSNGITYLYWYLQKPGQSPQLLIYQMSNLASGVPDRFSSSGSGTDFTLRISRVEAEDVGVYYCAQNLELPRTFGGGTKLEMKR
B7: ING-1 heavy chain T53H (Fab, V domains shown)
VH: QIQLVQSGPELKKPGETVKISCKASGYTFTKYGMNWVKQAPGKGLKWMGWINHYTEEPTYGDDFKGRFAFSLETSASTANLQINNLKSEDTATYFCARFGSAVDYWGQGTSVTVSS
VL: DIVMTQAAFSNPVTLGTSGSISCRSSKSLLHSNGITYLYWYLQKPGQSPQLLIYQMSNLASGVPDRFSSSGSGTDFTLRISRVEAEDVGVYYCAQNLELPRTFGGGTKLEMKR
B8: ING-1 heavy chain T53R (Fab, V domains shown)
VH: QIQLVQSGPELKKPGETVKISCKASGYTFTKYGMNWVKQAPGKGLKWMGWINRYTEEPTYGDDFKGRFAFSLETSASTANLQINNLKSEDTATYFCARFGSAVDYWGQGTSVTVSS
VL: DIVMTQAAFSNPVTLGTSGSISCRSSKSLLHSNGITYLYWYLQKPGQSPQLLIYQMSNLASGVPDRFSSSGSGTDFTLRISRVEAEDVGVYYCAQNLELPRTFGGGTKLEMKR
B9: ING-1 heavy chain T53E (Fab, V domains shown)
VH: QIQLVQSGPELKKPGETVKISCKASGYTFTKYGMNWVKQAPGKGLKWMGWINEYTEEPTYGDDFKGRFAFSLETSASTANLQINNLKSEDTATYFCARFGSAVDYWGQGTSVTVSS
VL: DIVMTQAAFSNPVTLGTSGSISCRSSKSLLHSNGITYLYWYLQKPGQSPQLLIYQMSNLASGVPDRFSSSGSGTDFTLRISRVEAEDVGVYYCAQNLELPRTFGGGTKLEMKR
B10: ING-1 heavy chain T55F (Fab, V domains shown)
VH: QIQLVQSGPELKKPGETVKISCKASGYTFTKYGMNWVKQAPGKGLKWMGWINTYFEEPTYGDDFKGRFAFSLETSASTANLQINNLKSEDTATYFCARFGSAVDYWGQGTSVTVSS
VL: DIVMTQAAFSNPVTLGTSGSISCRSSKSLLHSNGITYLYWYLQKPGQSPQLLIYQMSNLASGVPDRFSSSGSGTDFTLRISRVEAEDVGVYYCAQNLELPRTFGGGTKLEMKR
B11: ING-1 heavy chain T55W (Fab, V domains shown)
VH: QIQLVQSGPELKKPGETVKISCKASGYTFTKYGMNWVKQAPGKGLKWMGWINTYWEEPTYGDDFKGRFAFSLETSASTANLQINNLKSEDTATYFCARFGSAVDYWGQGTSVTVSS
VL: DIVMTQAAFSNPVTLGTSGSISCRSSKSLLHSNGITYLYWYLQKPGQSPQLLIYQMSNLASGVPDRFSSSGSGTDFTLRISRVEAEDVGVYYCAQNLELPRTFGGGTKLEMKR
B12: ING-1 heavy chain T55D (Fab, V domains shown)
VH: QIQLVQSGPELKKPGETVKISCKASGYTFTKYGMNWVKQAPGKGLKWMGWINTYDEEPTYGDDFKGRFAFSLETSASTANLQINNLKSEDTATYFCARFGSAVDYWGQGTSVTVSS
VL: DIVMTQAAFSNPVTLGTSGSISCRSSKSLLHSNGITYLYWYLQKPGQSPQLLIYQMSNLASGVPDRFSSSGSGTDFTLRISRVEAEDVGVYYCAQNLELPRTFGGGTKLEMKR
B13: ING-1 heavy chain T55Q (Fab, V domains shown)
VH: QIQLVQSGPELKKPGETVKISCKASGYTFTKYGMNWVKQAPGKGLKWMGWINTYQEEPTYGDDFKGRFAFSLETSASTANLQINNLKSEDTATYFCARFGSAVDYWGQGTSVTVSS
VL: DIVMTQAAFSNPVTLGTSGSISCRSSKSLLHSNGITYLYWYLQKPGQSPQLLIYQMSNLASGVPDRFSSSGSGTDFTLRISRVEAEDVGVYYCAQNLELPRTFGGGTKLEMKR
B14: ING-1 heavy chain T55E (Fab, V domains shown)
VH: QIQLVQSGPELKKPGETVKISCKASGYTFTKYGMNWVKQAPGKGLKWMGWINTYEEEPTYGDDFKGRFAFSLETSASTANLQINNLKSEDTATYFCARFGSAVDYWGQGTSVTVSS
VL: DIVMTQAAFSNPVTLGTSGSISCRSSKSLLHSNGITYLYWYLQKPGQSPQLLIYQMSNLASGVPDRFSSSGSGTDFTLRISRVEAEDVGVYYCAQNLELPRTFGGGTKLEMKR
B15: ING-1 heavy chain T59Q (Fab, V domains shown)
VH: QIQLVQSGPELKKPGETVKISCKASGYTFTKYGMNWVKQAPGKGLKWMGWINTYTEEPQYGDDFKGRFAFSLETSASTANLQINNLKSEDTATYFCARFGSAVDYWGQGTSVTVSS
VL: DIVMTQAAFSNPVTLGTSGSISCRSSKSLLHSNGITYLYWYLQKPGQSPQLLIYQMSNLASGVPDRFSSSGSGTDFTLRISRVEAEDVGVYYCAQNLELPRTFGGGTKLEMKR
B16: ING-1 heavy chain T55H (Fab, V domains shown)
VH: QIQLVQSGPELKKPGETVKISCKASGYTFTKYGMNWVKQAPGKGLKWMGWINTYHEEPTYGDDFKGRFAFSLETSASTANLQINNLKSEDTATYFCARFGSAVDYWGQGTSVTVSS
VL: DIVMTQAAFSNPVTLGTSGSISCRSSKSLLHSNGITYLYWYLQKPGQSPQLLIYQMSNLASGVPDRFSSSGSGTDFTLRISRVEAEDVGVYYCAQNLELPRTFGGGTKLEMKR
B17: ING-1 heavy chain T53D (Fab, V domains shown)
VH: QIQLVQSGPELKKPGETVKISCKASGYTFTKYGMNWVKQAPGKGLKWMGWINDYTEEPTYGDDFKGRFAFSLETSASTANLQINNLKSEDTATYFCARFGSAVDYWGQGTSVTVSS
VL: DIVMTQAAFSNPVTLGTSGSISCRSSKSLLHSNGITYLYWYLQKPGQSPQLLIYQMSNLASGVPDRFSSSGSGTDFTLRISRVEAEDVGVYYCAQNLELPRTFGGGTKLEMKR
B18: ING-1 heavy chain T53Q (Fab, V domains shown)
VH: QIQLVQSGPELKKPGETVKISCKASGYTFTKYGMNWVKQAPGKGLKWMGWINQYTEEPTYGDDFKGRFAFSLETSASTANLQINNLKSEDTATYFCARFGSAVDYWGQGTSVTVSS
VL: DIVMTQAAFSNPVTLGTSGSISCRSSKSLLHSNGITYLYWYLQKPGQSPQLLIYQMSNLASGVPDRFSSSGSGTDFTLRISRVEAEDVGVYYCAQNLELPRTFGGGTKLEMKR
B19: ING-1 heavy chain T55Y (Fab, V domains shown)
VH: QIQLVQSGPELKKPGETVKISCKASGYTFTKYGMNWVKQAPGKGLKWMGWINTYYEEPTYGDDFKGRFAFSLETSASTANLQINNLKSEDTATYFCARFGSAVDYWGQGTSVTVSS
VL: DIVMTQAAFSNPVTLGTSGSISCRSSKSLLHSNGITYLYWYLQKPGQSPQLLIYQMSNLASGVPDRFSSSGSGTDFTLRISRVEAEDVGVYYCAQNLELPRTFGGGTKLEMKR
B20: ING-1 heavy chain T30Y (Fab, V domains shown)
VH: QIQLVQSGPELKKPGETVKISCKASGYTFYKYGMNWVKQAPGKGLKWMGWINTYTEEPTYGDDFKGRFAFSLETSASTANLQINNLKSEDTATYFCARFGSAVDYWGQGTSVTVSS
VL: DIVMTQAAFSNPVTLGTSGSISCRSSKSLLHSNGITYLYWYLQKPGQSPQLLIYQMSNLASGVPDRFSSSGSGTDFTLRISRVEAEDVGVYYCAQNLELPRTFGGGTKLEMKR

From US20110118131A1 (published 2011) come the findings set out here.

In this test the target is T1, Ep-CAM (UniProt P16422 24-265, limits assumed).
T1 construct: Antigen of the Biacore analysis of ING-1 variants
T1 sequence (looked up): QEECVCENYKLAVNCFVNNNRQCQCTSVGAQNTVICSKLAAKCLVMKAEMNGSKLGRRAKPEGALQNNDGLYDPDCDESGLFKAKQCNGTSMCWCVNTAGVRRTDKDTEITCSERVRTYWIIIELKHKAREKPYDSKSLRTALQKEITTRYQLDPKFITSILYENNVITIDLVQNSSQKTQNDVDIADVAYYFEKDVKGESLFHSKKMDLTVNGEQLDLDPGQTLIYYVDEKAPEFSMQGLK
The experiment in a line: Biacore, Fab periplasmic extract. On the technique in general: In SPR one partner is held on a chip, and binding of the other changes the refractive index at the surface.
Turning to B1, the binding result is reported as “no binding”. Same read-out and setting: to B2 belongs “no binding”. On to B3, for which the binding result is “no binding”. For B4, the “fold difference in affinity vs original” value was found to be 0.4 fold. As to B5, the binding result was “no binding”. On the same count and under the same terms, to B6 belongs “no binding”; to B7, “no binding”. With B8, the binding result was “no binding”.

With B9, the binding result is “no binding”. For the molecule B10, the “fold difference in affinity vs original” value turned out to be 0.03 fold.

As for B11, the “fold difference in affinity vs original” value amounted to 0.1 fold. As to B12, the “fold difference in affinity vs original” value came to 0.03 fold.

On to B13, for which the “fold difference in affinity vs original” value was 0.03 fold. Turning to B14, the binding result is recorded as “no binding”. In the case of B15, the binding result is “no binding”. As for B16, the “fold difference in affinity vs original” value came out at 0.05 fold. Turning to B17, the binding result is recorded as “no binding”. Consider B18, for which the binding result is recorded as “no binding”. On to B19, for which the “fold difference in affinity vs original” value was determined as 0.03 fold. The same measure, in the same setting: to B20 belongs 2 fold.
